Results: patent US20220372155A1 (LYVGEN BIOPHARMA, published 2022)

B1: TM559 (antibody, human IgG2, kappa)
heavy: EVQLVESGGGLVQPGGSLRLSCAASGFTFTNYGLHWVRQAPGKGLEWVSSISPSGGVTYYRDSVKGRFTISRDNSKNTLYLQMNSLRAEDTAVYYCAKPFLGWGGANWIAHWGQGTLVTVSSASTKGPSVFPLAPCSRSTSESTAALGCLVKDYFPEPVTVSWNSGALTSGVHTFPAVLQSSGLYSLSSVVTVPSSNFGTQTYTCNVDHKPSNTKVDKTVERKCCVECPPCPAPPVAGPSVFLFPPKPKDTLMISRTPEVTCVVVDVSHEDPEVQFNWYVDGVEVHNAKTKPREEQFNSTFRVVSVLTVVHQDWLNGKEYKCKVSNKGLPAPIEKTISKTKGQPREPQVYTLPPSREEMTKNQVSLTCLVKGFYPSDIAVEWESNGQPENNYKTTPPMLDSDGSFFLYSKLTVDKSRWQQGNVFSCSVMHEALHNHYTQKSLSLSPG
light: DIQMTQSPSSLSASVGDRVTITCLASEDISNDLAWYQQKPGKAPKLLIYFVDRLLDGVPSRFSGSGSGTDFTLTISSLQPEDFATYYCQQSYKYPPTFGQGTKLEIKRTVAAPSVFIFPPSDEQLKSGTASVVCLLNNFYPREAKVQWKVDNALQSGNSQESVTEQDSKDSTYSLSSTLTLSKADYEKHKVYACEVTHQGLSSPVTKSFNRGEC
notes: LYV378_VH-1/IgG2, LYV378_VL-1/kappa
B2: LP3782 (antibody, human IgG4 S228P, kappa)
heavy: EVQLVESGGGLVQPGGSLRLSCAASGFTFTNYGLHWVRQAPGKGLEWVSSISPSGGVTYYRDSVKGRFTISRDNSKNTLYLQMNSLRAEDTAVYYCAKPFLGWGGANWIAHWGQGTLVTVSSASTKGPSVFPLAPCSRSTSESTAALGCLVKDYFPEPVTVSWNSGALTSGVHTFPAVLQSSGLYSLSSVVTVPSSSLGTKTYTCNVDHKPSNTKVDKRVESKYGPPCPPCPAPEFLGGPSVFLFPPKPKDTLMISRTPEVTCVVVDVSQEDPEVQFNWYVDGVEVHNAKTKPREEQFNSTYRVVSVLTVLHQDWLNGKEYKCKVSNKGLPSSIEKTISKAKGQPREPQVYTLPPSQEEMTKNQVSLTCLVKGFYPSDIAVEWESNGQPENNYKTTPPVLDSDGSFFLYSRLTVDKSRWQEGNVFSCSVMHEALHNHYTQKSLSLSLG
light: DIQMTQSPSSLSASVGDRVTITCLASEDISNDLAWYQQKPGKAPKLLIYFVDRLLDGVPSRFSGSGSGTDFTLTISSLQPEDFATYYCQQSYKYPPTFGQGTKLEIKRTVAAPSVFIFPPSDEQLKSGTASVVCLLNNFYPREAKVQWKVDNALQSGNSQESVTEQDSKDSTYSLSSTLTLSKADYEKHKVYACEVTHQGLSSPVTKSFNRGEC
notes: LYV378_VH-1/IgG4, LYV378_VL-1/kappa; also called TM3782
B3: LP3781 (antibody, human IgG1, kappa)
heavy: not shown
light: DIQMTQSPSSLSASVGDRVTITCLASEDISNDLAWYQQKPGKAPKLLIYFVDRLLDGVPSRFSGSGSGTDFTLTISSLQPEDFATYYCQQSYKYPPTFGQGTKLEIKRTVAAPSVFIFPPSDEQLKSGTASVVCLLNNFYPREAKVQWKVDNALQSGNSQESVTEQDSKDSTYSLSSTLTLSKADYEKHKVYACEVTHQGLSSPVTKSFNRGEC
notes: LYV378_VH-1/IgG1, LYV378_VL-1/kappa; also called TM3781
B4: LP3783 (antibody, human IgG1, kappa)
heavy: EVQLVESGGGLVQPGGSLRLSCAASGFTFTNYGLHWVRQAPGKGLEWVSSISPSGGVTYYRDSVKGRFTISRDNSKNTLYLQMNSLRAEDTAVYYCAKPFLGWGGANWIAHWGQGTLVTVSSASTKGPSVFPLAPSSKSTSGGTAALGCLVKDYFPEPVTVSWNSGALTSGVHTFPAVLQSSGLYSLSSVVTVPSSSLGTQTYICNVNHKPSNTKVDKKVEPKSCDKTHTCPPCPAPELLGPSVFLFPPKPKDTLMISRTPEVTCVVVDVEHEDPEVKFNWYVDGVEVHNAKTKPREEQYNSTYRVVSVLTVLHQDWLNGKEYKCKVSNKALPAPIEKTISKAKGQPREPQVYTLPPSREEMTKNQVSLTCLVKGFYPSDIAVEWESNGQPENNYKTTPPVLDSDGSFFLYSKLTVDKSRWQQGNVFSCSVMHEALHNHYTQKSLSLSPG
light: DIQMTQSPSSLSASVGDRVTITCLASEDISNDLAWYQQKPGKAPKLLIYFVDRLLDGVPSRFSGSGSGTDFTLTISSLQPEDFATYYCQQSYKYPPTFGQGTKLEIKRTVAAPSVFIFPPSDEQLKSGTASVVCLLNNFYPREAKVQWKVDNALQSGNSQESVTEQDSKDSTYSLSSTLTLSKADYEKHKVYACEVTHQGLSSPVTKSFNRGEC
notes: LYV378_VH-1/IgG1mut, LYV378_VL-1/kappa; also called TM3783; Ly3783
B5: TM738 (antibody, human IgG1, kappa, V domains shown)
VH: QVQLVESGGGLVQPGGSLKLSCATSGFNFQDSFMNWVRQASGKGLEWVGQIRNKNYNYATYYTESLEGRVTISRDDSKNTAYLQMNSLKTEDTAVYYCTSYYYDGFADYFDYWGQGTTVTVSS
VL: DIQMTQSPSSLSASVGDRVTITCKASQNIYIYLNWYQQKPGKAPKLLIYNTNNLQTGVPSRFSGSGSGTDFTLTISSLQPEDFATYYCLQHSSRRTFGGGTKVEIKR
notes: VH-2Q/IgG1mut, VL-1/kappa
B6: TM739 (antibody, human IgG1, kappa, V domains shown)
VH: QVQLVESGGGLVQPGGSLKLSCATSGFNFNDAFMNWVRQASGKGLEWVGQIRNKNYNYATYYTESLEGRVTISRDDSKNTAYLQMNSLKTEDTAVYYCTSYYYDGFADYFDYWGQGTTVTVSS
VL: DIQMTQSPSSLSASVGDRVTITCKASQNIYIYLNWYQQKPGKAPKLLIYNTNNLQTGVPSRFSGSGSGTDFTLTISSLQPEDFATYYCLQHSSRRTFGGGTKVEIKR
notes: VH-2A/IgG1mut, VL-1/kappa
B7: TM740 (antibody, human IgG1, kappa)
heavy: QVQLVESGGGLVQPGGSLKLSCATSGFNFNDYFMNWVRQASGKGLEWVGQIRNKNYNYATYYTESLEGRVTISRDDSKNTAYLQMNSLKTEDTAVYYCTSYYYDGFADYFDYWGQGTTVTVSSASTKGPSVFPLAPSSKSTSGGTAALGCLVKDYFPEPVTVSWNSGALTSGVHTFPAVLQSSGLYSLSSVVTVPSSSLGTQTYICNVNHKPSNTKVDKKVEPKSCDKTHTCPPCPAPELLGPSVFLFPPKPKDTLMISRTPEVTCVVVDVEHEDPEVKFNWYVDGVEVHNAKTKPREEQYNSTYRVVSVLTVLHQDWLNGKEYKCKVSNKALPAPIEKTISKAKGQPREPQVYTLPPSREEMTKNQVSLTCLVKGFYPSDIAVEWESNGQPENNYKTTPPVLDSDGSFFLYSKLTVDKSRWQQGNVFSCSVMHEALHNHYTQKSLSLSPG
light: DIQMTQSPSSLSASVGDRVTITCKASQNIYIYLNWYQQKPGKAPKLLIYNTNNLQTGVPSRFSGSGSGTDFTLTISSLQPEDFATYYCLQHSSRRTFGGGTKVEIKRTVAAPSVFIFPPSDEQLKSGTASVVCLLNNFYPREAKVQWKVDNALQSGNSQESVTEQDSKDSTYSLSSTLTLSKADYEKHKVYACEVTHQGLSSPVTKSFNRGEC
notes: VH-2Y/IgG1mut, VL-1/kappa
B8: TM378 (antibody, human IgG4 S228P, kappa, V domains shown)
VH: EVHLVESGGGLVQPGRSLKLSCAASGFTFTNYGLHWIRQAPTKGLEWVASISPSGGVTYYRDSVKGRFTISRDNGKTTLHLQMDSLRSEDTATYYCALPFLGWGGANWIAHWGQGTLVTVSS
VL: DIQMTQSPASLSASLGETVSIECLASEDISNDLAWYQQKSGKSPQLLIYFVDRLLDGVPSRFSGSGSGTRHSLKISGMQPEDEADYFCQQSYKYPPTFGGGTKLELKR
notes: chimeric LYV378, human IgG4; also called chimeric counterpart TM378
B9: Ly401 (bispecific antibody, human IgG1, kappa)
heavy: EVQLVESGGGVVQPGRSLRLSCSASGFDFTTYWMSWVRQAPGKGLEWIGEIHPDSSTINYAPSLKDRFTISRDNAKNTLFLQMDSLRPEDTGVYFCASLYFGFPWFAYWGQGTPVTVSSASTKGPSVFPLAPSSKSTSGGTAALGCLVKDYFPEPVTVSWNSGALTSGVHTFPAVLQSSGLYSLSSVVTVPSSSLGTQTYICNVNHKPSNTKVDKKVEPKSCDKTHTCPPCPAPELLGPSVFLFPPKPKDTLMISRTPEVTCVVVDVSHEDPEVKFNWYVDGVEVHNAKTKPREEQYNSTYRVVSVLTVLHQDWLNGKEYKCKVSNKALPAPIEKTISKAKGQPREPQVYTLPPSREEMTKNQVSLTCLVKGFYPSDIAVEWESNGQPENNYKTTPPVLDSDGSFFLYSKLTVDKSRWQQGNVFSCSVMHEALHNHYTQKSLSLSPGGGGGSGGGGSGGGGSGGGGSDIQMTQSPSSLSASVGDRVTITCKASQNIYIYLNWYQQKPGKAPKLLIYNTNNLQTGVPSRFSGSGSGTDFTLTISSLQPEDFATYYCLQHSSRRTFGGGTKVEIKGGGGSGGGGSGGGGSGGGGSQVQLVESGGGLVQPGGSLKLSCATSGFNFNDYFMNWVRQASGKGLEWVGQIRNKNYNYATYYTESLEGRVTISRDDSKNTAYLQMNSLKTEDTAVYYCTSYYYDGFADYFDYWGQGTTVTVSS
light: DIQLTQSPSSLSASVGDRVTITCKASQDVGTSVAWYQQKPGKAPKLLIYWTSTRHTGVPSRFSGSGSGTDFTFTISSLQPEDIATYYCQQYSLYRSFGQGTKVEIKRTVAAPSVFIFPPSDEQLKSGTASVVCLLNNFYPREAKVQWKVDNALQSGNSQESVTEQDSKDSTYSLSSTLTLSKADYEKHKVYACEVTHQGLSSPVTKSFNRGEC
notes: Ly311 HC (IgG1 mutated Fc)-TM740 scFv VL-VH + Ly311 LC

These binders were tested against T1, human CD40 expressed on CHO cells (human, UniProt P25942 21-277) (assay: FACS, CHO cells).
T1 construct: whole, on cells; also used for the reporter cells over-expressing human CD40; also called cellular CD40; CHO-CD40 cells
T1 sequence (P25942 21-277): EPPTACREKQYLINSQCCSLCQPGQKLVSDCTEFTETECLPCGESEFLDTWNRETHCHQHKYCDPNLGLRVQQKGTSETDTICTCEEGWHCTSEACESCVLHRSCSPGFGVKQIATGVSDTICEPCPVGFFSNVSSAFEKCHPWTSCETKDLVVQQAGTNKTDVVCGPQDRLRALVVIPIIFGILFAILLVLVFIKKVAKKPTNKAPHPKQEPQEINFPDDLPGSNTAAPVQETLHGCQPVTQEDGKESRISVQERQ

Binding result, binds:
B1
B2
B3
B4
B5
B6
B7
B8
B9
